Results reported in paper PMC6004577 (Molecular Biology of the Cell, 2018).

Experiments:
SEC = target: the molecule itself; assay: SEC
AUC = target: the molecule itself; assay: AUC

B1: α-mDelNT, N-terminal half of mouse α-Delphilin (aa 1-558) (domain or fragment, UniProt Q0QWG9-2 1-558, looked up)
chain: MSCLGIFIPKKHRARFDEVVSQGLLGKLCRARRAQGAQRLRRSRSEERPERLLVSTRASAAPRRPDEPPPRKATSLLGGRTGPGGPRRTVRVYKGNKSFGFTLRGHGPVWIESVLPGSPAENASLKSGDRILFLNGLDMRNCSHDKVVSMLQGSGAMPTLVVEEGPVPFASDSDSLDSPTRASALTSLQWVADILPSSIRVQGRTFSQQLDHLLTPPERYGVCRALERFFQHRNIDTLIVDVYPVLDTPAKQVLWQFLYQLLTYEEQELCQEKIACFLGYTAMTEPESSLDLEPESTPEPTPEPQPRSSLRASSMCRRSLRSQGLETSLSCGPGDCPEMPLPLIPGERQAGDGTSLPETPNPKMMSAVYAELESRLNSSFKGKIGTMSKSRASPPVPSLVGTSGPRTLSGVSWPSDRLLPSPCYDPLCSGGLASPSSSESHPYASLDSSRAPSPQPGLGSIHADSPPSPDPIRPPSRRKLFAFSRPVRSRDTDRFLDALSEQLGPRLSIVDDFLTPENDYEEMSFHDDQGSFVTNERSSASECVSSSEEGSSLTYSSI
Question: For B1, which “stoichiometry N” value (SEC) is on record?
Answer: 7 ± 1 subunits

Question: What about the “stoichiometry N” value (AUC) of the same protein?
Answer: 6
